B1: V2L2-GL: V2L2-germlined mAb (antibody, V domains shown)
VH: EVQLLESGGGLVQPGGSLRLSCAASGFTFSSYAMNWVRQAPGKGLEWVSAITISGITAYYTDSVKGRFTISRDNSKNTLYLQMNSLRAEDTAVYYCAKEEFLPGTHYYYGMDVWGQGTTVTVSS
VL: AIQMTQSPSSLSASVGDRVTITCRASQGIRNDLGWYQQKPGKAPKLVIYSASTLQSGVPSRFSGSGSGTDFTLSISSLQPDDFATYYCLQDYNYPWTFGQGTKVEIK
modifications: V2L2-GL VH; V2L2-MD and V2L2-GL VL
notes: V2L2-germlined mAb
B2: 29D2: anti-PcrV mAb, epitope class 3 (antibody, V domains shown)
VH: EVQLLESGGGLVQPGGSLRLSCAASGFTFSSYAMSWVRQAPGKGLEWVSAISGSGYSTYYADSVKGRFTMSRDNSKNTLYLQMNSLRAEDTAVYYCAAEYSISSNYYYGMDVWGQGTTVTVSS
VL: DIQLTQSPSFLSASVGDRVTITCWASQGISSYLAWYQQKPGKAPKLLIYAASTLQSGVPSRFSGSGSGTEFTLTISSLQPEDFATYYCQQLNSSPLTFGGGTKVEIK
modifications: 29D2 VH; 29D2 VL
B3: Psl0225: lead optimized anti-Psl clone; VH SEQ ID NO:290, VL SEQ ID NO:291 (antibody, V domains shown)
VH: QVQLQESGPGLVKPSETLSLTCTVSGGSISPYYWTWIRQPPGKGLELIGYIHSSGYTDYNPSLKSRVTISGDTSKKQFSLKLSSVTAADTAVYYCARAMDIEPHALDIWGQGTMVTVSS
VL: DIQLTQSPSSLSASVGDRVTITCRASQSIRSHLNWYQQKPGKAPKLLIYGASNLQSGVPSRFSGSGSGTDFTLTISSLQPEDFATYYCQQSDDGFPNFGGGTKVEIK
modifications: Psl0225-Germline VH; Psl0225-Germline VL
B4: Psl0588: lead optimized anti-Psl clone; VH SEQ ID NO:292, VL SEQ ID NO:293 (antibody, V domains shown)
VH: QVQLQESGPGLVKPSETLSLTCTVSGGSISPYYWTWIRQPPGKGLELIGYIHSSGYTDYNPSLKSRVTISGDTSKKQFSLKLSSVTAADTAVYYCARADDPFPGYLDIWGQGTMVTVSS
VL: DIQLTQSPSSLSASVGDRVTITCRASQSIRSHLNWYQQKPGKAPKLLIYGASNLQSGVPSRFSGSGSGTDFTLTISSLQPEDFATYYCQQSDTFPLKFGGGTKVEIK
modifications: Psl0588-Germline VH
B5: Psl0337: lead optimized anti-Psl clone; VH SEQ ID NO:295, VL SEQ ID NO:296 (antibody, V domains shown)
VH: QVQLQESGPGLVKPSETLSLTCTVSGGSISPYYWTWIRQPPGKGLELIGYIHSSGYTDYNPSLKSRVTISGDTSKKQFSLKLSSVTAADTAVYYCARADWDHKHALDIWGQGTMVTVSS
VL: DIQLTQSPSSLSASVGDRVTITCRASQSIRSHLNWYQQKPGKAPKLLIYGASNLQSGVPSRFSGSGSGTDFTLTISSLQPEDFATYYCQDSSSWPLTFGGGTKVEIK
modifications: Psl0337-Germline VH; Psl0337-Germline VL

Legend:
[1] = system: P. aeruginosa (6077 exoU+; 6206) lysis of rabbit red blood cells; test: Rabbit red blood cell (RBC) lysis inhibition assay; type: cell-based, Pseudomonas aeruginosa; conditions: strain 6077; FIG. 12D-E
Procedure: Percent inhibition of cytotoxicity analysis was analysed for the parental V2L2 mAb, mAb166 (positive control) and R347 (negative control), where the antibodies were administered to cultured broncho-epithelial cell line A549 combined with log-phase P. aeruginosa strain 6077 (exoU+) at a MOI of approximately 10. A549 lysis was assayed by measuring released lactate dehydrogenase (LDH) activity and lysis in the presence of mAbs was compared to wells without mAb to determine percent inhibition. The V2L2 mAb, mAb166 (positive control) and R347 (negative control) were evaluated for their ability to prevent lysis of RBCs, where the antibodies were mixed with log-phase P. aeruginosa 6077 (exoU^+) and washed rabbit red blood cells (RBCs) and incubated for 2 hours at 37°. Intact RBCs were pelleted and the extent of lysis determined by measuring the OD405 of the cell-free supernatant. Lysis in the presence of anti-PcrV mAbs was compared to wells without mAb to determine percent inhibition. The positive control antibody, mAb166, is a previously characterized anti-PcrV antibody (J Infect Dis. 186: 64-73 (2002), Crit Care Med. 40: 2320-2326 (2012)).

[2] = system: P. aeruginosa strains (PAO1, 33356, 6294, 6077, 6206, PA103A); test: Acute pneumonia model in mice, survival; type: in vivo, Pseudomonas aeruginosa; conditions: strain 6077 (1×10^6 CFU/animal) intranasal; mAbs IP 24 hours prior; 11A6, 3G5, V2L7 5 or 1 mg/kg, 29D2 and V2L2 25 mg/kg; FIG. 13E-G
Procedure: Antibodies or PBS were administered 24 hours before infection in each model. P. aeruginosa acute pneumonia, keratitis, and thermal injury infection models were performed as described (DiGiandomenico, A., et al., Proc Natl Acad Sci USA 104, 4624-4629 (2007)), with modifications. In the acute pneumonia model, BALB/c mice (The Jackson Laboratory) were infected with P. aeruginosa strains suspended in a 0.05 ml inoculum. In the thermal injury model, CF-1 mice (Charles River) received a 10% total body surface area burn with a metal brand heated to 92° C. for 10 seconds. Animals were infected subcutaneously with P. aeruginosa strain 6077 at the indicated dose. For organ burden experiments, acute pneumonia was induced in mice followed by harvesting of lungs, spleens, and kidneys 24 hours post-infection for determination of CFU.
The in vivo effect of administration of an anti-PcrV antibodies was studied in mice using an acute pneumonia model. Groups of mice were treated with either increasing concentrations of the V2L2 antibody, a positive control anti-PcrV antibody (mAb166), or a negative control (R347), as shown in FIG. 13 (A-B). Groups of mice were also treated with either increasing concentrations of the V2L2 antibody, the PcrV antibody PcrV-02, or a negative control (R347), as shown in FIG. 13 (C-D). Twenty-four hours after treatment, all mice were infected with 5×10^7 CFU (C) Pseudomonas aeruginosa 6294 (06) or (D) PA103A (O11).
Groups of mice were treated with either increasing concentrations of the 11A6, 3G5 or V2L7, the same concentrations of 29D2, 1F3, 1E6, V2L2, LE10, SH3, 4A8, 2H3, or 21F1, increasing concentrations of the 29D2, increasing concentrations of the V2L2, the PcrV antibody PcrV-02, or a negative control (R347), as shown in FIG. 13 (E-H). Mice were injected intraperitoneally (IP) with mAbs 24 hours prior to intranasal infection with Pseudomonas strain 6077 (1×10^6 CFU/animal).

[3] = system: luminescent P. aeruginosa serogroup 05 strain (PAO1.lux); test: Opsonophagocytic killing (OPK) assay, PAO1.lux; type: cell-based, Pseudomonas aeruginosa; conditions: FIG. 11 A-Q
Procedure: This example describes the evaluation of prioritized human IgG1 antibodies to promote OPK of P. aeruginosa. […] OPK assays were performed as described in (DiGiandomenico, A., et al., Infect Immun 72, 7012-7021 (2004)), with modifications. Briefly, assays were performed in 96-well plates using 0.025 ml of each OPK component; P. aeruginosa strains; diluted baby rabbit serum; differentiated HL-60 cells; and monoclonal antibody. In some OPK assays, luminescent P. aeruginosa strains, which were constructed as described (Choi, K. H., et al., Nat Methods 2, 443-448 (2005)), were used. Luminescent OPK assays were performed as described above but with determination of relative luciferase units (RLUs) using a Perkin Elmer ENVISION Multilabel plate reader (Perkin Elmer).

Molecule | prevention of RBC lysis [1] | protection in vivo [2] | OPK activity of lead optimized anti-Psl mAbs [3]
B1 | demonstrated prevention of RBC lysis |  | 
B2 | demonstrated prevention of RBC lysis | provides protection in vivo | 
B3 |  |  | enhanced OPK activity
B4 |  |  | enhanced OPK activity
B5 |  |  | enhanced OPK activity
